The text below walks through data of patent US20110189194A1, “USE OF CD95 INHIBITORS FOR THE TREATMENT OF INFLAMMATORY DISORDERS” (Deutsches Krebsforschungszentrum Stiftung des offentlichen …, priority 2008, published 2011).

Entries after “also recorded” stand apart in the source; their conditions may differ.

The conditions of assay [1]: treated within the first 8 h of injury, compared to placebo, naloxone, or MPSS at later time points; cited from earlier work.
A further assay deals with peritoneum. The experiment in a line: Thioglycolate-induced peritonitis, infiltration of neutrophils. Format: in vivo, mice. As to the method: (§1) Mice were treated intravenously 5 minutes after SCI or induction of thioglycolate-induced peritonitis with 50 μg (solved in 200 μl sterile PBS) of either CD95-RB69 or a mutated form, CD95-(R87S)-RB69, which is unable to bind CD95L.
For thioglycolate-induced peritonitis, 1 ml of 3% thioglycolate broth (Fluka #70157) was injected i.p. in CD95L^f/f;LysMcre and CD95L^f/f mice or in wt mice acutely treated with CD95-RB69 or its respective control. In this model, neutrophils are known to start infiltrating the peritoneum within the first hours, whereas macrophage infiltration peaks at 72 h. At the indicated times, mice were sacrificed, blood samples collected and peritoneal cavities lavaged with 10 ml sterile Hanks balanced salt solution (HBSS; Invitrogen #14170-138) containing 0.25% bovine serum albumin (Roche #10735094001). Total cell counts were performed in a Neubauer hematocytometer (Brand), and differential cell counts were carried out by flow cytometry. Results are expressed as the absolute number of neutrophils or macrophages×10^5/cavity. For every experiment performed, blood immune cell populations were analyzed by the appropriate cell markers.

The test system of assay [2] is injured spinal cord. The experiment in a line: Immune cell infiltration into the injured spinal cord after SCI (flow cytometry). The assay is classed as in vivo, mice. As to the method: SCI models: Transection injury of the spinal cord was performed as previously described (Demjen et al., 2004). For the crush injury model, forceps were held on the spinal cord for 15 seconds resulting in a lateral compression of the spinal cord (Plemel et al., 2008). Immediately following injury and for an additional week mice received antibiotics (Gentamycin, 5 ml/kg of a 0.2 mg/ml solution) to prevent infections. Post-operative care included housing of the animals at 27° C., food and water ad libitum, and manual expression of the bladders once daily.
as §1
Stainings were performed on cells derived from bone marrow, peritoneum, blood or spinal cord tissue. For preparation of mouse cells derived from spinal cord tissue, the animals were perfused with HBSS to remove blood from the organs. Then the spinal cord (1 cm around the lesion site) was isolated and lysed for 3 h in thermolysin (0.5 mg/ml, Sigma #T-7902) on a shaker at 37° C. Tissue was incubated for 10 more minutes in trypsin 0.5%-EDTA (Invitrogen #25300096) and finally homogenized by passing 10 times through a Pasteur pipette and through a 40 μm cell strainer (BD #352340).
For all stainings, cells were resuspended in FACS buffer (PBS, 0.2% NaN3) and preincubated in Fc block for 10 minutes before stained with the respective antibodies 30 minutes on ice. For intracellular stainings blood samples were fixed with 4% PFA after Ery Lysis and permeabilized with methanol before the staining. Samples were run on a FACSCantoll flow cytometer (BD) and analyzed using FACSDiva (BD) software or FlowJo software. For all FACS analyses done on cells derived from spinal cord tissue 1,000,000 events were counted.
For all tissue analysis, neutrophils were identified as CD45 positive, GR-1 high-positive and their characteristic forward (FSC) and side scatter (SSC) profile. […]
Background: In flow cytometry, cells or beads pass a laser one at a time.

The target of a further assay is T1, human CD95L (Homo sapiens, UniProt P48023).
T1 construct: T4 (bacteriophage T4 fibritin foldon trimerisation domain)
T1 sequence (P48023 with tags, fused parts or gaps limits assumed): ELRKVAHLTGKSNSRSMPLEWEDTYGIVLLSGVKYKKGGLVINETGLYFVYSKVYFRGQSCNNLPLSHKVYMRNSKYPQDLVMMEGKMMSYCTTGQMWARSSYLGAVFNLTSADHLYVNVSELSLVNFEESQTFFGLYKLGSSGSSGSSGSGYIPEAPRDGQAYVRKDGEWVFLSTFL
Put plainly: Neutralisation of human CD95L-T4 induced apoptosis on Jurkat cells (DEVD-AFC cleavage). The assay is classed as cell-based. The settings on record: 250 ng/ml human CD95L-T4. As to the method: (§2) Mutation of R87S abrogates the ability of the CD95-RB69 protein to inhibit CD95L-mediated killing of Jurkat cells. Jurkat cells were incubated with 250 ng/ml of human (A) or mouse (B) CD95L-T4 in the presence of wild-type and mutant CD95-RB69 in duplicates for each concentration of the fusion proteins. Decreased cell death is represented by low DEVD-AFC cleavage rates.
(§3) While we were using a human CD95 fusion protein in mouse, we had to analyse the binding of the R87S based control-protein for the human CD95/murine CD95L-interaction prior to the studies performed. We addressed this question by examining the ability of the CD95-fusion proteins to neutralise the apoptosis inducing capacity of either human or mouse CD95L on Jurkat cells in vitro.

Assay [3] deals with injured spinal cord. The experiment in a line: Gene expression profiling (microarray) of spinal cord 24 h after SCI. Format: in vivo, mice. The settings on record: compared to vehicle-treated. As to the method: as §1
For tissue, spinal cords were dissected out and RNA was extracted with the mirVana microRNA Extraction Kit essentially according to the manufacturer's protocol (Ambion #AM1560). mRNA of injured mice were represented as normalized to the respective uninjured animals. Cells from peritoneal exudates or bone-marrow derived cells were washed with PBS and taken up in RLT-buffer containing β-mercaptoethanol. RNA was extracted using the RNeasy Mini Kit (Qiagen, #74104).
.Cel files were generated using Affymetrix software and imported into Chipinspector. The data were analyzed by Genomatix Chipinspector as described by the manufacturer's guidelines (Genomatix GmbH, Munich, Germany, http://www.genomatix.de). dChip software was used for hierarchical clustering of datasets (http://biosuntharvard.edu/complab/dchip/). A 5% p-value was applied as a cut-off. […]

The target in the next assay is T2, mouse CD95L (Mus musculus, UniProt P41047).
T2 construct: T4 (bacteriophage T4 fibritin foldon trimerisation domain)
T2 sequence (P41047 with tags, fused parts or gaps limits assumed): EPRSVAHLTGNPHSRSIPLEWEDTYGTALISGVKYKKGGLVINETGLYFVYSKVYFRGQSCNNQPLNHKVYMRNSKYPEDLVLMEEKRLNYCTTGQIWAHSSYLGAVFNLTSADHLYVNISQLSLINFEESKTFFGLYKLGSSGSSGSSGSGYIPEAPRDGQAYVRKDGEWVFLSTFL
Put plainly: Neutralisation of mouse CD95L-T4 induced apoptosis on Jurkat cells (DEVD-AFC cleavage). The assay is classed as cell-based. Particulars: 250 ng/ml mouse CD95L-T4. As to the method: as §2, §3

The mark [4] stands for this setting: 24 h after SCI, 50 μg i.v. 5 minutes after SCI, 1,000,000 events counted.

In the case of `C[C@H]1C[C@@H]2[C@H]([C@@H](O)C[C@@]3(C)[C@H]2CC[C@]3(O)C(=O)COC(=O)CCC(=O)O)[C@@]2(C)C=CC(=O)C=C12` [MPSS, methylprednisolone sodium succinate], the “motor and sensory function of spinal injured patients” value in assay [1] was “significantly improved motor and sensory function”.

B1: CD95-RB69: CD95L-neutralizing trimeric fusion protein: human CD95-ECD (M1-E168) fused to bacteriophage RB69 fibritin foldon domain, with streptag-II (protein)
chain: MVGIWTLLPLVLTSVARLSSKSVNAQVTDINSKGLELRKTVTTVETQNLEGLHHDGQFCHKPCPPGERKARDCTVNGDEPDCVPCQEGKEYTDKAHFSSKCRRCRLCDEGHGLEVEINCTRTQNTKCRCKPNFFCNSTVCEHCDPCTKCEHGIIKECTLTSNTKCKEEGSSGSSGSSGSGYIEDAPSDGKFYVRKDGAWVELPTASGPSSSSSSAWSHPQFEK
modifications: CD95-RB69 fusion protein
notes: CD95L-neutralizing trimeric fusion protein: human CD95-ECD (M1-E168) fused to bacteriophage RB69 fibritin foldon domain, with streptag-II
Consider B1, for which the “Neutrophil number ± SEM in peritoneal cavity” value in the assay on peritoneum (6 h after thioglycolate, 50 μg i.v. 5 minutes after induction) is 13.92 ± 1.46 *10^5. Moreover, in the assay on peritoneum (6 hours after thioglycolate injection), the “infiltration of neutrophils into the peritoneum (in words)” value was “significantly reduced; also recorded: Reduced infiltration”. In the assay on injured spinal cord [2] (setting [4]), the “CD45 cells in injured spinal cord, Events ± SEM” value was “CD45: 698 ± 57 Events” and the “Neutrophils in injured spinal cord, Events ± SEM” value is “Neutrophils: 400 ± 54 Events”. In the assay with injured spinal cord [2] (24 hours after injury, systemic administration), the “infiltration of neutrophils into the lesion site (in words)” value is “decreased; also recorded: reduced”. Further, in the assay with human CD95L, the “neutralisation of the apoptotic activity of human CD95L” value is listed as “efficiently neutralises”. In the assay on injured spinal cord [3], the “expression of genes involved in apoptosis” value was “reduced; also recorded: down-regulation” and the “expression of genes involved in the immune response” value was “down-regulation”. Also, the “neutralisation of the apoptotic activity of mouse CD95L” value with mouse CD95L is recorded as “efficiently neutralises”.
